T1: human type I IFN receptor on HEK-Blue IFN-α/β cells (human, UniProt P17181 28-557; P48551 27-515)
T1 sequence (looked up) 1: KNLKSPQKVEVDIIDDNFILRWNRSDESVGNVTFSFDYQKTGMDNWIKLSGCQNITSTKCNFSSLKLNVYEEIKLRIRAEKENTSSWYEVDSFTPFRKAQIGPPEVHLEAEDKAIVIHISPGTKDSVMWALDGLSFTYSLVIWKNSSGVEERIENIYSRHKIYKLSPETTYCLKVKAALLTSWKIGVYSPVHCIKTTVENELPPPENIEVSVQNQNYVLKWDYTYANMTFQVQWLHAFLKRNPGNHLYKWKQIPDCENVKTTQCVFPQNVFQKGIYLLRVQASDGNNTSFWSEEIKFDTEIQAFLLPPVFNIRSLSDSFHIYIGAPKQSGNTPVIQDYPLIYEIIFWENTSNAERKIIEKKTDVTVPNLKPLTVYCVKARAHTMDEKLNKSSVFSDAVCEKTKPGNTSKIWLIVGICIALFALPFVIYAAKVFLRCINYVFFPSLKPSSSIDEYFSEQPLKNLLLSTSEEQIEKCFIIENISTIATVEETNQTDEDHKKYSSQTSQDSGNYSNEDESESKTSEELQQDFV
T1 sequence (looked up) 2: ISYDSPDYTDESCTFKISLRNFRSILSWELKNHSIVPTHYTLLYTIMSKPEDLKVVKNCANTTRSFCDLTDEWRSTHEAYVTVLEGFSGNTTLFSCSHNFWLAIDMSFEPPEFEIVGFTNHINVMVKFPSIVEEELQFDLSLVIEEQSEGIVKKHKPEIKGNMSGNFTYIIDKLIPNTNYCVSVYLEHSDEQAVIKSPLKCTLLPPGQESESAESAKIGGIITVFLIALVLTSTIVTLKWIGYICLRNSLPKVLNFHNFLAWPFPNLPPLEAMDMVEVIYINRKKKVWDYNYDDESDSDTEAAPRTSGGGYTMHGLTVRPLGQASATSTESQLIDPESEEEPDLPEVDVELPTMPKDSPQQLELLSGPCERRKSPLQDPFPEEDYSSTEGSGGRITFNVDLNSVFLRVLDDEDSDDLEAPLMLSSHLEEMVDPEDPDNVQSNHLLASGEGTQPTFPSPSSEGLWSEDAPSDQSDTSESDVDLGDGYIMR


Tests used:
[1] = target: T1, human type I IFN receptor on HEK-Blue …; experiment: cell-based or functional assay
human CD40 = human CD40 (human, UniProt P25942 21-277); experiment: cell-based or functional assay
Chain of human CD40 (P25942 21-277): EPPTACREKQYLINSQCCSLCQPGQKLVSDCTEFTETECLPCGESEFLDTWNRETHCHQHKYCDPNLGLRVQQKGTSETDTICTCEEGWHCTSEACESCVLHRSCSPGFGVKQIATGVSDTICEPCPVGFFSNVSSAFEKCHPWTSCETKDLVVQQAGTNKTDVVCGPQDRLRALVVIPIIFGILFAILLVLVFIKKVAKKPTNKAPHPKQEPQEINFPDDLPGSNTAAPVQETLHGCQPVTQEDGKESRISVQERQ

Binder	IFNβ EC50 (HEK-Blue IFN-α/β SEAP reporter cells) [1] [µg/mL]	CD40 EC50 (HEK-Blue CD40L NFκB-SEAP reporter cells) (human CD40) [µg/mL]	IFNε EC50 (HEK-Blue IFN-α/β SEAP reporter cells) [1] [µg/mL]
IFA10 (antibody, human IgG2, kappa) heavy: not shown light: DIQMTQSPSSVSASVGDRVTITCRASQGIYSWLAWYQQKPGKAPNLLIYTASTLQSGVPSRFSGSGSGTDFTLTISSLQPEDFATYYCQQANIFPLTFGGGTKVEIKRTVAAPSVFIFPPSDEQLKSGTASVVCLLNNFYPREAKVQWKVDNALQSGNSQESVTEQDSKDSTYSLSSTLTLSKADYEKHKVYACEVTHQGLSSPVTKSFNRGEC	0.0045	0.0265	–
IFA8 (antibody, human IgG2, kappa) heavy: not shown light: DIQMTQSPSSVSASVGDRVTITCRASQGIYSWLAWYQQKPGKAPNLLIYTASTLQSGVPSRFSGSGSGTDFTLTISSLQPEDFATYYCQQANIFPLTFGGGTKVEIKRTVAAPSVFIFPPSDEQLKSGTASVVCLLNNFYPREAKVQWKVDNALQSGNSQESVTEQDSKDSTYSLSSTLTLSKADYEKHKVYACEVTHQGLSSPVTKSFNRGEC	0.0029	0.0397	–
IFA9 (antibody, human IgG2, kappa) heavy: not shown light: DIQMTQSPSSVSASVGDRVTITCRASQGIYSWLAWYQQKPGKAPNLLIYTASTLQSGVPSRFSGSGSGTDFTLTISSLQPEDFATYYCQQANIFPLTFGGGTKVEIKRTVAAPSVFIFPPSDEQLKSGTASVVCLLNNFYPREAKVQWKVDNALQSGNSQESVTEQDSKDSTYSLSSTLTLSKADYEKHKVYACEVTHQGLSSPVTKSFNRGEC	0.0007	0.0426	–
IFA1 (antibody, human IgG2, kappa) light: DIQMTQSPSSVSASVGDRVTITCRASQGIYSWLAWYQQKPGKAPNLLIYTASTLQSGVPSRFSGSGSGTDFTLTISSLQPEDFATYYCQQANIFPLTFGGGTKVEIKRTVAAPSVFIFPPSDEQLKSGTASVVCLLNNFYPREAKVQWKVDNALQSGNSQESVTEQDSKDSTYSLSSTLTLSKADYEKHKVYACEVTHQGLSSPVTKSFNRGECAEAAAKEAAAKAMSYNLLGFLQRSSNFQCQKLLWQLNGRLEYCLKDRMNFDIPEEIKQLQQFQKEDAALTIYEMLQNIFAIFRQDSSSTGWNETIVENLLANVYHQINHLKTVLEEKLEKEDFTRGKLMSSLHLKRYYGRILHYLKAKEYSHCAWTIVRVEILRNFYFINRLTGYLRN heavy: not shown	0.00164	0.0741	–
IFA2 (antibody, human IgG2, kappa) light: DIQMTQSPSSVSASVGDRVTITCRASQGIYSWLAWYQQKPGKAPNLLIYTASTLQSGVPSRFSGSGSGTDFTLTISSLQPEDFATYYCQQANIFPLTFGGGTKVEIKRTVAAPSVFIFPPSDEQLKSGTASVVCLLNNFYPREAKVQWKVDNALQSGNSQESVTEQDSKDSTYSLSSTLTLSKADYEKHKVYACEVTHQGLSSPVTKSFNRGECAEAAAKEAAAKAMSYNLLGFLQRSSNFQSQKLLWQLNGRLEYCLKDRMNFDIPEEIKQLQQFQKEDAALTIYEMLQNIFAIFRQDSSSTGWNETIVENLLANVYHQINHLKTVLEEKLEKEDFTRGKLMSSLHLKRYYGRILHYLKAKEYSHCAWTIVRVEILRNFYFINRLTGYLRN heavy: not shown	0.00014	0.111	–

More lines, now with the values ahead:

IFNβ EC50 (HEK-Blue IFN-α/β SEAP reporter cells) [1] [µg/mL]	CD40 EC50 (HEK-Blue CD40L NFκB-SEAP reporter cells) (human CD40) [µg/mL]	IFNε EC50 (HEK-Blue IFN-α/β SEAP reporter cells) [1] [µg/mL]	Binder
0.00234	0.182	–	IFA20 (antibody, human IgG2, kappa) light: DIQMTQSPSSVSASVGDRVTITCRASQGIYSWLAWYQQKPGKAPNLLIYTASTLQSGVPSRFSGSGSGTDFTLTISSLQPEDFATYYCQQANIFPLTFGGGTKVEIKRTVAAPSVFIFPPSDEQLKSGTASVVCLLNNFYPREAKVQWKVDNALQSGNSQESVTEQDSKDSTYSLSSTLTLSKADYEKHKVYACEVTHQGLSSPVTKSFNRGECAEAAAKEAAAKAAEAAAKEAAAKAMSYNLLGFLQRSSNFQSQKLLWQLNGRLEYCLKDRMNFDIPEEIKQLQQFQKEDAALTIYEMLQNIFAIFRQDSSSTGWNETIVENLLANVYHQINHLKTVLEEKLEKEDFTRGKLMSSLHLKRYYGRILHYLKAKEYSHCAWTIVRVEILRNFYFINRLTGYLRN heavy: not shown
0.00208	0.364	–	IFA126 (antibody, human IgG2, kappa) light: DIQMTQSPSSVSASVGDRVTITCRASQGIYSWLAWYQQKPGKAPNLLIYTASTLQSGVPSRFSGSGSGTDFTLTISSLQPEDFATYYCQQANIFPLTFGGGTKVEIKRTVAAPSVFIFPPSDEQLKSGTASVVCLLNNFYPREAKVQWKVDNALQSGNSQESVTEQDSKDSTYSLSSTLTLSKADYEKHKVYACEVTHQGLSSPVTKSFNRGECGGGGSGGGGSGGGGSMSYNLLGFLQRSSNFQSQKLLWQLNGRLEYCLKDRMNFDIPEEIKQLQQFQKEDAALTIYEMLQNIFAIFRQDSSSTGWNETIVENLLANVYHQINHLKTVLEEKLEKEDFTRGKLMSSLHLKRYYGRILHYLKAKEYSHCAWTIVRVEILRNFYFINRLTGYLRN heavy: not shown
0.00364	0.105	–	IFA12 (antibody, human IgG2, kappa) light: DIQMTQSPSSVSASVGDRVTITCRASQGIYSWLAWYQQKPGKAPNLLIYTASTLQSGVPSRFSGSGSGTDFTLTISSLQPEDFATYYCQQANIFPLTFGGGTKVEIKRTVAAPSVFIFPPSDEQLKSGTASVVCLLNNFYPREAKVQWKVDNALQSGNSQESVTEQDSKDSTYSLSSTLTLSKADYEKHKVYACEVTHQGLSSPVTKSFNRGECPAPAMSYNLLGFLQRSSNFQCQKLLWQLNGRLEYCLKDRMNFDIPEEIKQLQQFQKEDAALTIYEMLQNIFAIFRQDSSSTGWNETIVENLLANVYHQINHLKTVLEEKLEKEDFTRGKLMSSLHLKRYYGRILHYLKAKEYSHCAWTIVRVEILRNFYFINRLTGYLRN heavy: not shown
0.0007	0.192	–	IFA13 (antibody, human IgG2, kappa) light: DIQMTQSPSSVSASVGDRVTITCRASQGIYSWLAWYQQKPGKAPNLLIYTASTLQSGVPSRFSGSGSGTDFTLTISSLQPEDFATYYCQQANIFPLTFGGGTKVEIKRTVAAPSVFIFPPSDEQLKSGTASVVCLLNNFYPREAKVQWKVDNALQSGNSQESVTEQDSKDSTYSLSSTLTLSKADYEKHKVYACEVTHQGLSSPVTKSFNRGECPAPAMSYNLLGFLQRSSNFQSQKLLWQLNGRLEYCLKDRMNFDIPEEIKQLQQFQKEDAALTIYEMLQNIFAIFRQDSSSTGWNETIVENLLANVYHQINHLKTVLEEKLEKEDFTRGKLMSSLHLKRYYGRILHYLKAKEYSHCAWTIVRVEILRNFYFINRLTGYLRN heavy: not shown
–	0.0658	0.0782	IFA49 (antibody, human IgG2, kappa) heavy: not shown light: DIQMTQSPSSVSASVGDRVTITCRASQGIYSWLAWYQQKPGKAPNLLIYTASTLQSGVPSRFSGSGSGTDFTLTISSLQPEDFATYYCQQANIFPLTFGGGTKVEIKRTVAAPSVFIFPPSDEQLKSGTASVVCLLNNFYPREAKVQWKVDNALQSGNSQESVTEQDSKDSTYSLSSTLTLSKADYEKHKVYACEVTHQGLSSPVTKSFNRGEC
0.00178	0.0428	–	IFA11 (antibody, human IgG2, kappa) heavy: not shown light: DIQMTQSPSSVSASVGDRVTITCRASQGIYSWLAWYQQKPGKAPNLLIYTASTLQSGVPSRFSGSGSGTDFTLTISSLQPEDFATYYCQQANIFPLTFGGGTKVEIKRTVAAPSVFIFPPSDEQLKSGTASVVCLLNNFYPREAKVQWKVDNALQSGNSQESVTEQDSKDSTYSLSSTLTLSKADYEKHKVYACEVTHQGLSSPVTKSFNRGEC
0.0013	0.11	–	IFA19 (antibody, human IgG2, kappa) light: DIQMTQSPSSVSASVGDRVTITCRASQGIYSWLAWYQQKPGKAPNLLIYTASTLQSGVPSRFSGSGSGTDFTLTISSLQPEDFATYYCQQANIFPLTFGGGTKVEIKRTVAAPSVFIFPPSDEQLKSGTASVVCLLNNFYPREAKVQWKVDNALQSGNSQESVTEQDSKDSTYSLSSTLTLSKADYEKHKVYACEVTHQGLSSPVTKSFNRGECSGGTSGSTSGTGSMSYNLLGFLQRSSNFQSQKLLWQLNGRLEYCLKDRMNFDIPEEIKQLQQFQKEDAALTIYEMLQNIFAIFRQDSSSTGWNETIVENLLANVYHQINHLKTVLEEKLEKEDFTRGKLMSSLHLKRYYGRILHYLKAKEYSHCAWTIVRVEILRNFYFINRLTGYLRN heavy: not shown

Source: patent US20250320302A1 (EVOTEC INTERNATIONAL, published 2025)
